In patent publication US20220402995A1 (TOSOH, published 2022):
Positions count from the first letter of the chain named.

B1: AAV-binding protein No. 1 (Asn324Asp) (receptor)
chain: MGSAGESVQITLPKDEVQLNAYVLQEPPKGETYTYDWQLITHPRDYSGEMEGKHSQILKLSKLTPGLYEFKVIVEGQNAHGEGYVNVTVKPEPRKNRPPIAIVSPQFQEISLPTTSTVIDGSQSTDDDKIVQYHWEELKGPLREEKISEDTAILKLSKLVPGNYTFSLTVVDSDGATNSTTANLTVNKAVDHHHHHH
B2: AAV-binding protein No. 7 (Leu348Pro) (receptor)
chain: B1 chain with D15N, L39P
B3: AAV-binding protein No. 19 (Val396Ala) (receptor)
chain: B1 chain with D15N, V87A
B4: AAV-binding protein No. 52 (Leu348Pro, Leu376Pro, Val396Ala) (receptor)
chain: B1 chain with D15N, L39P, L67P, V87A
B5: AAV-binding protein No. 22 (Leu477Pro) (receptor)
chain: B1 chain with D15N, L168P
B6: AAV-binding protein No. 48 (Ala330Gly, Gln347Pro, Lys371Glu) (receptor)
chain: B1 chain with D15N, A21G, Q38P, K62E
B7: AAV-binding protein No. 11 (Tyr355Asn) (receptor)
chain: B1 chain with D15N, Y46N
B8: AAV-binding protein No. 41 (Glu453Gly, Ser476Arg) (receptor)
chain: B1 chain with D15N, E144G, S167R
B9: AAV-binding protein No. 54 (His363Leu, Ser364Pro, His389Leu) (receptor)
chain: B1 chain with D15N, H54L, S55P, H80L
B10: AAV-binding protein No. 57 (Gln334Arg, Val381Ala, His389Arg, Tyr393Cys) (receptor)
chain: B1 chain with D15N, Q25R, V72A, H80R, Y84C
B11: AAV-binding protein No. 25 (Asn324Asp, Tyr355His) (receptor)
chain: B1 chain with Y46H
B12: AAV-binding protein No. 56 (Asn324Ser, Thr341Ala, Leu369Pro, Phe416Ser) (receptor)
chain: B1 chain with D15S, T32A, L60P, F107S
B13: AAV-binding protein No. 17 (Phe379Ser) (receptor)
chain: B1 chain with D15N, F70S
B14: AAV-binding protein No. 23 (Asn487Asp) (receptor)
chain: B1 chain with D15N, N178D
B15: AAV-binding protein No. 27 (Tyr331Cys, Leu376Pro) (receptor)
chain: B1 chain with D15N, Y22C, L67P
B16: AAV-binding protein No. 39 (Ile366Thr, Gln441Leu) (receptor)
chain: B1 chain with D15N, I57T, Q132L
B17: AAV-binding protein No. 5 (Asp345Asn) (receptor)
chain: B1 chain with D15N, D36N
B18: AAV-binding protein No. 14 (Gln365Arg) (receptor)
chain: B1 chain with D15N, Q56R
B19: AAV-binding protein No. 33 (Tyr344His, His363Arg) (receptor)
chain: B1 chain with D15N, Y35H, H54R
B20: AAV-binding protein No. 40 (Phe379Ser, Lys455Arg) (receptor)
chain: B1 chain with D15N, F70S, K146R
B21: AAV-binding protein No. 37 (Gln365Arg, His389Gln) (receptor)
chain: B1 chain with D15N, Q56R, H80Q
B22: AAV-binding protein No. 50 (Val332Gln, Tyr342Cys, Val412Ala) (receptor)
chain: B1 chain with D15N, V23Q, Y33C, V103A
B23: AAV-binding protein No. 26 (Asn329Tyr, Lys399Arg) (receptor)
chain: B1 chain with D15N, N20Y, K90R
B24: AAV-binding protein No. 3 (Lys338Glu) (receptor)
chain: B1 chain with D15N, K29E
B25: AAV-binding protein No. 46 (Asn329Asp, Ile366Thr, Lys368Arg) (receptor)
chain: B1 chain with D15N, N20D, I57T, K59R
B26: AAV-binding protein No. 15 (Leu367Pro) (receptor)
chain: B1 chain with D15N, L58P
B27: AAV-binding protein No. 2 (Tyr331Cys) (receptor)
chain: B1 chain with D15N, Y22C
B28: AAV-binding protein No. 51 (Leu333Pro, Pro337Leu, Thr350Met) (receptor)
chain: B1 chain with D15N, L24P, P28L, T41M
B29: AAV-binding protein No. 44 (Gln327Arg, Lys338Arg, Leu348Pro) (receptor)
chain: B1 chain with D15N, Q18R, K29R, L39P
B30: AAV-binding protein No. 21 (Tyr442Phe) (receptor)
chain: B1 chain with D15N, Y133F
B31: AAV-binding protein No. 18 (Tyr393Cys) (receptor)
chain: B1 chain with D15N, Y84C
B32: AAV-binding protein No. 31 (Tyr342His, Ile349Thr) (receptor)
chain: B1 chain with D15N, Y33H, I40T
B33: AAV-binding protein No. 35 (Gln347Leu, Thr373Ala) (receptor)
chain: B1 chain with D15N, Q38L, T64A
B34: AAV-binding protein No. 20 (Lys399Glu) (receptor)
chain: B1 chain with D15N, K90E
B35: AAV-binding protein No. 42 (Ile319Phe, Pro322Leu, Lys448Arg) (receptor)
chain: B1 chain with I10F, P13L, D15N, K139R
B36: AAV-binding protein No. 28 (Tyr331Cys, Glu384Gly) (receptor)
chain: B1 chain with D15N, Y22C, E75G
B37: AAV-binding protein No. 10 (Arg353Cys) (receptor)
chain: B1 chain with D15N, R44C
B38: AAV-binding protein No. 4 (Tyr344His) (receptor)
chain: B1 chain with D15N, Y35H
B39: AAV-binding protein No. 6 (Trp346Leu) (receptor)
chain: B1 chain with D15N, W37L
B40: AAV-binding protein No. 13 (Gly357Cys) (receptor)
chain: B1 chain with D15N, G48C
B41: AAV-binding protein No. 24 (Asn492Asp) (receptor)
chain: B1 chain with D15N, N183D
B42: AAV-binding protein No. 12 (Ser356Cys) (receptor)
chain: B1 chain with D15N, S47C
B43: AAV-binding protein No. 34 (Trp346Arg, Glu458Gly) (receptor)
chain: B1 chain with D15N, W37R, E149G
B44: AAV-binding protein No. 38 (Gln365Arg, Gln415Leu) (receptor)
chain: B1 chain with D15N, Q56R, Q106L
B45: AAV-binding protein No. 8 (His351Leu) (receptor)
chain: B1 chain with D15N, H42L
B46: AAV-binding protein No. 55 (Gln365Arg, Ser370Ala, Glu391Lys) (receptor)
chain: B1 chain with D15N, Q56R, S61A, E82K
B47: AAV-binding protein No. 104 (AVR8g + Tyr344Phe) (receptor)
chain: B1 chain with V8D, D15N, Y33C, Y35F, K53E, K62N, G81S, K90E, S167R, N178D
B48: AAV-binding protein No. 105 (AVR8g + Arg353Cys) (receptor)
chain: B1 chain with V8D, D15N, Y33C, R44C, K53E, K62N, G81S, K90E, S167R, N178D
B49: AAV-binding protein No. 106 (AVR8g + Tyr355Cys) (receptor)
chain: B1 chain with V8D, D15N, Y33C, Y46C, K53E, K62N, G81S, K90E, S167R, N178D
B50: AAV-binding protein No. 107 (AVR8g + Ser356Cys) (receptor)
chain: B1 chain with V8D, D15N, Y33C, S47C, K53E, K62N, G81S, K90E, S167R, N178D
B51: AAV-binding protein No. 103 (AVR8g + Glu340Val) (receptor)
chain: B1 chain with V8D, D15N, E31V, Y33C, K53E, K62N, G81S, K90E, S167R, N178D
B52: AAV-binding protein No. 108 (AVR8g + Met359Leu) (receptor)
chain: B1 chain with V8D, D15N, Y33C, M50L, K53E, K62N, G81S, K90E, S167R, N178D

These binders were tested against T1, VLP2 (virus-like particles of AAV2) (AAV2, UniProt P03135 1-735; P03135 1-598; P03135 1-533) (assay: ELISA on VLP2; binding after 43°C 15 min / untreated).
T1 construct: Empty AAV2 capsid; background says about 60 protein molecules, VP1:VP2:VP3 = 1:1:10; Immobilised on the ELISA plate
T1 sequence (P03135 whole entry, chain 1 of 3): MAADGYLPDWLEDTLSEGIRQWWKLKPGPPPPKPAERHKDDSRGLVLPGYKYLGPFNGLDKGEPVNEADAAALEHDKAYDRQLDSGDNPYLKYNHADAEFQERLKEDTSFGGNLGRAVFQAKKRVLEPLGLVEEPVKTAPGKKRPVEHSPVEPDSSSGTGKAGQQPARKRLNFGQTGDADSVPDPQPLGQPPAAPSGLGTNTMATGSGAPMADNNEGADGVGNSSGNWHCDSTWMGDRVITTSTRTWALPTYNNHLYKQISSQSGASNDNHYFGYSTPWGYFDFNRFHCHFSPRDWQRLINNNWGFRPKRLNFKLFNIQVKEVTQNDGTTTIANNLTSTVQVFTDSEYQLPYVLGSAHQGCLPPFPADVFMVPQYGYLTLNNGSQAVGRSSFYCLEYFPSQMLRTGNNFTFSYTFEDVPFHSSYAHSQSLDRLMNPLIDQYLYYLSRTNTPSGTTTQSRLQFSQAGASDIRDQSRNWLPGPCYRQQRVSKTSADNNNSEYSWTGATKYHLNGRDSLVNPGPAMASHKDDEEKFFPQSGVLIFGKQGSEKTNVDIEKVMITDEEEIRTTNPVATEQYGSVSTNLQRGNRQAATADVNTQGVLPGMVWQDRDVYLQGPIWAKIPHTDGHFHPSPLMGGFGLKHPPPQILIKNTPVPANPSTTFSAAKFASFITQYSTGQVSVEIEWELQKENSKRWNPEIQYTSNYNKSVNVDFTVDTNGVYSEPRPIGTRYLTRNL
T1 sequence (P03135 139-735, tags left off, chain 2 of 3): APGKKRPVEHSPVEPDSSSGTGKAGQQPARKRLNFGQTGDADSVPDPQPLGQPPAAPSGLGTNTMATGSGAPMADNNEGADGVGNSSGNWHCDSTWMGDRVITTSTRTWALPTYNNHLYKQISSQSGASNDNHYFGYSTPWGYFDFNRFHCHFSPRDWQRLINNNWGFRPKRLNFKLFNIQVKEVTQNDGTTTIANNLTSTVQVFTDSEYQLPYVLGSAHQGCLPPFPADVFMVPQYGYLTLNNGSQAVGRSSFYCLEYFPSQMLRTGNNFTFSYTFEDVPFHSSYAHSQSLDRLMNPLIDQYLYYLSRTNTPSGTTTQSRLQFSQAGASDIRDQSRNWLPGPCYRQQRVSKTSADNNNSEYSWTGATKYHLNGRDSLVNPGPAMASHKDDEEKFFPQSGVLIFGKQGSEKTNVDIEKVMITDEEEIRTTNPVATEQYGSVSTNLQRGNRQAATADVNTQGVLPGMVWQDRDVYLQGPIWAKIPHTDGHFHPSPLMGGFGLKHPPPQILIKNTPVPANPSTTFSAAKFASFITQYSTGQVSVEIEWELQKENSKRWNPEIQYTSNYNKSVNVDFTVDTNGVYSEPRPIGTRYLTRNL
T1 sequence (P03135 203-735, chain 3 of 3): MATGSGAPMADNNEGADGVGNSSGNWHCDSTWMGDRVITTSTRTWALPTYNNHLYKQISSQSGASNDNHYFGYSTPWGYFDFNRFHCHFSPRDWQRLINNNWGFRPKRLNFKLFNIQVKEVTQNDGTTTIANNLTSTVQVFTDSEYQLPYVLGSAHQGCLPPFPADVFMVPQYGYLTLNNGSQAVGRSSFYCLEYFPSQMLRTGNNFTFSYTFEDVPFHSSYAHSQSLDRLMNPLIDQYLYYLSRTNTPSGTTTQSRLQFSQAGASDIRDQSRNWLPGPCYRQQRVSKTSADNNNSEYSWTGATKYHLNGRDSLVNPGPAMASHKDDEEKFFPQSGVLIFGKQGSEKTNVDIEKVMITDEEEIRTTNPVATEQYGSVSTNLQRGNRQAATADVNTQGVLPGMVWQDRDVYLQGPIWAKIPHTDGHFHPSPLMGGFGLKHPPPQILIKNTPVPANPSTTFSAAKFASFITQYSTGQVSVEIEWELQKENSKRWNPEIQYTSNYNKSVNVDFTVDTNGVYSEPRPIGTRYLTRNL

First: B1
Second: B2
The “Residual activity [%]” value of the first is lower: 46% for the first, 69.6% for the second.

Going from B3 to B4, the “Residual activity [%]” value rises from 62.3% to 80.9%.

Compared with B5, B6 is higher in “Residual activity [%]” value: 79.9% for the first, 88.4% for the second.

First: B7
Second: B8
The “Residual activity [%]” value of the first is higher: 80.6% for the first, 56.1% for the second.

Going from B9 to B10, the “Residual activity [%]” value falls from 87.2% to 79%.

First: B11
Second: B12
The “Residual activity [%]” value of the first is lower: 77.6% for the first, 81.3% for the second.

Going from B13 to B14, the “Residual activity [%]” value falls from 80.9% to 58.3%.

Compared with B15, B16 is lower in “Residual activity [%]” value: 74.4% for the first, 65.5% for the second.

Compared with B17, B18 is lower in “Residual activity [%]” value: 71.4% for the first, 57.7% for the second.

Going from B19 to B20, the “Residual activity [%]” value falls from 82.2% to 77.4%.

Going from B21 to B22, the “Residual activity [%]” value rises from 70.1% to 80.3%.

Compared with B23, B24 is lower in “Residual activity [%]” value: 61.9% for the first, 52.6% for the second.

Going from B25 to B26, the “Residual activity [%]” value rises from 49.3% to 56.9%.

Compared with B27, B28 is lower in “Residual activity [%]” value: 73.4% for the first, 66.7% for the second.

First: B29
Second: B30
The “Residual activity [%]” value of the first is higher: 76.1% for the first, 48.7% for the second.

First: B31
Second: B32
The “Residual activity [%]” value of the first is higher: 86.4% for the first, 66.8% for the second.

Going from B33 to B34, the “Residual activity [%]” value falls from 85.9% to 63.3%.

Going from B35 to B36, the “Residual activity [%]” value rises from 56.6% to 83.7%.

Compared with B37, B38 is higher in “Residual activity [%]” value: 84.3% for the first, 88.2% for the second.

Compared with B39, B40 is higher in “Residual activity [%]” value: 85.7% for the first, 97% for the second.

First: B41
Second: B42
The “Residual activity [%]” value of the first is lower: 63.2% for the first, 84.6% for the second.

Going from B43 to B44, the “Residual activity [%]” value falls from 78.1% to 65.3%.

Compared with B45, B46 is lower in “Residual activity [%]” value: 68.7% for the first, 65.7% for the second.

These binders were tested against T1, VLP2 (virus-like particles of AAV2) (assay: ELISA on VLP2; binding after pH 10.0 41.2°C 15 min / untreated).

First: B47
Second: B48
The “Residual activity [%]” value of the first is lower: 40.3% for the first, 62.1% for the second.

Going from B49 to B50, the “Residual activity [%]” value rises from 63.8% to 67.6%.

First: B51
Second: B52
The “Residual activity [%]” value of the first is higher: 35% for the first, 32.4% for the second.
